This passage reports Kd and percent reduction of Ku co-precipitated, relative to wild-type GFP-WRN results from PMC4831024.

What is called Kd is the concentration at which binding is half-saturated.

In one experiment the target is Ku (Homo sapiens) (UniProt P12956). Particulars: cited from earlier work.
The target of experiment [1] is GFP–WRN ΔX (deleted XLF-like motif) (human) (UniProt Q14191). The experiment can be described thus: co-IP; GFP-tagged proteins recovered on GFP-TRAP beads from transfected HEK293T extract (25 mM Tris-HCl pH 7.5, 150 mM NaCl, 10% glycerol, 0.5% Triton X-100, 1 mM DTT), 1 h at 4 °C; immunoblot for GFP, Ku80 and DNA–PKcs; Ku quantified by ImageJ relative to wild-type WRN.
Sequence of GFP–WRN ΔX (deleted XLF-like motif) (human) (Q14191 whole entry, stated change not applied): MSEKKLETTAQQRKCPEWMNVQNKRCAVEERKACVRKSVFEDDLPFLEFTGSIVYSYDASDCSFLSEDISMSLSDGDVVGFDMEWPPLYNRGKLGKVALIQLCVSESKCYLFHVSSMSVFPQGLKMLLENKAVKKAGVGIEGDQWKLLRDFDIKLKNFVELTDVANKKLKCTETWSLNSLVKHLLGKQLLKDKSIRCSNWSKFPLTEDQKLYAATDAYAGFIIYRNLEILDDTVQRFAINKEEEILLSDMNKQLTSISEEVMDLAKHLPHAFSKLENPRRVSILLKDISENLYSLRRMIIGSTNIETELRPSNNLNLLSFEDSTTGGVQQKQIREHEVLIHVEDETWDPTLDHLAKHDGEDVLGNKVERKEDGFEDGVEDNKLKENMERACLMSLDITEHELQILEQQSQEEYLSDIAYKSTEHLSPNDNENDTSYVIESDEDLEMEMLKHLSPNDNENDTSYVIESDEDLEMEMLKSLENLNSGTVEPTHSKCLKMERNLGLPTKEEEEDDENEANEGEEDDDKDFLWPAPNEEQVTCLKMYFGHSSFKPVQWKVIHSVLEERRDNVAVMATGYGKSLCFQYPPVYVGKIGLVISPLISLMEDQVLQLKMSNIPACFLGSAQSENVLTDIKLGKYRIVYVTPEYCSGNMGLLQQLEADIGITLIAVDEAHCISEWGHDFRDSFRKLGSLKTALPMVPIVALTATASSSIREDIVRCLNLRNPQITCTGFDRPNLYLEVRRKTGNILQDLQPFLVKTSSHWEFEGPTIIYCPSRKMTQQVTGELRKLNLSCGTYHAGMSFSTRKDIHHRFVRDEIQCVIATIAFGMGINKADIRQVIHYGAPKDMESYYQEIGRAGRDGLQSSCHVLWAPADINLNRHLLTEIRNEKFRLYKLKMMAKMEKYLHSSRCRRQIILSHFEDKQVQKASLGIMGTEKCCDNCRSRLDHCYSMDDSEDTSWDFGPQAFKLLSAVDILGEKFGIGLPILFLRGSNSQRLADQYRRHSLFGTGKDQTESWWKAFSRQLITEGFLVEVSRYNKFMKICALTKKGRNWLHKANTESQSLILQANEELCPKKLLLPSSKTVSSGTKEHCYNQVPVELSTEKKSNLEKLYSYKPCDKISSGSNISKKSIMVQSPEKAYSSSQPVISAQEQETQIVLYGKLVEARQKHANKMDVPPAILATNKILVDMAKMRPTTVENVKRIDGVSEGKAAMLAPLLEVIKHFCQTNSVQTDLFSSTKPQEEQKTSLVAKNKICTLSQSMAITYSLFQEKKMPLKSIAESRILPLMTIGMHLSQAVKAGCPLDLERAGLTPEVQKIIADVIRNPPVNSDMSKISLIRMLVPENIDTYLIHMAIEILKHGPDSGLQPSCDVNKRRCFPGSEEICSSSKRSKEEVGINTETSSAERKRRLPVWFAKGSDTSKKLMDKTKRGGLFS

Sequence of Ku80, endogenous (P13010 whole entry): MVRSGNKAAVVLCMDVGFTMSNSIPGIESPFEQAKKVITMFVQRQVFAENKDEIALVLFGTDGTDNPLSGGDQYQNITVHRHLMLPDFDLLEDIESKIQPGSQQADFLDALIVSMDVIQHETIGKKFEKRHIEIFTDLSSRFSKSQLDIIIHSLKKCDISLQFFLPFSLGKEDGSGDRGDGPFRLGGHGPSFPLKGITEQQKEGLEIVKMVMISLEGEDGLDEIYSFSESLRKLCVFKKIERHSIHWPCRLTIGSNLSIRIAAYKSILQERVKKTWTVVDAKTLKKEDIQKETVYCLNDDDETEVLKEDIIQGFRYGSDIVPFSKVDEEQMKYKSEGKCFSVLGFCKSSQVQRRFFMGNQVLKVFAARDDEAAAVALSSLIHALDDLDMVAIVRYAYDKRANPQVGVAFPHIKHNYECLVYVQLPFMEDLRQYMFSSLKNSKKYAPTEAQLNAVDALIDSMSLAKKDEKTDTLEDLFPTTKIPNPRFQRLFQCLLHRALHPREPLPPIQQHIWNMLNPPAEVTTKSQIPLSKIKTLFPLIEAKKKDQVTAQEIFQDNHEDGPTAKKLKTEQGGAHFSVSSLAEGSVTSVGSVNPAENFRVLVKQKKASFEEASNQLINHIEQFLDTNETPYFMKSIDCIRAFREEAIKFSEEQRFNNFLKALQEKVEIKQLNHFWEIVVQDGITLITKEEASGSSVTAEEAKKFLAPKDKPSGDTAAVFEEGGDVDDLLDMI
Sequence of Ku (Homo sapiens) (P12956 2-609, chain 1 of 2): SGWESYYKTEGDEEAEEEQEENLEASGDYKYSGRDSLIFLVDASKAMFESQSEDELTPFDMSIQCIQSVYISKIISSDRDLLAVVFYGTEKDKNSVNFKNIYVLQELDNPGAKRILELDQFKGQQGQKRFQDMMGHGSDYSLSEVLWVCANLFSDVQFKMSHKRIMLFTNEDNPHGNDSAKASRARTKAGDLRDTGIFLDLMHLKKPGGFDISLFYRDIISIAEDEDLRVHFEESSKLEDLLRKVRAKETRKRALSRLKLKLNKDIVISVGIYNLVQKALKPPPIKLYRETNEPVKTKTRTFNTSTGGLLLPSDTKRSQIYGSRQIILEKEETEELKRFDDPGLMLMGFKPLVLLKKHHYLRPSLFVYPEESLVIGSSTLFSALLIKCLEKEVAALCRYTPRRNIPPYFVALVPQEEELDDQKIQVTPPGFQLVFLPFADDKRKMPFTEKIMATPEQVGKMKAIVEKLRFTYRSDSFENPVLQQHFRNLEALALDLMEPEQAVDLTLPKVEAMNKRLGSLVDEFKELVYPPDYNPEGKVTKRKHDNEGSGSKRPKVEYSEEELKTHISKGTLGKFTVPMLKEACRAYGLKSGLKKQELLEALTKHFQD
Sequence of Ku (Homo sapiens) (P13010 2-732, chain 2 of 2, further chain): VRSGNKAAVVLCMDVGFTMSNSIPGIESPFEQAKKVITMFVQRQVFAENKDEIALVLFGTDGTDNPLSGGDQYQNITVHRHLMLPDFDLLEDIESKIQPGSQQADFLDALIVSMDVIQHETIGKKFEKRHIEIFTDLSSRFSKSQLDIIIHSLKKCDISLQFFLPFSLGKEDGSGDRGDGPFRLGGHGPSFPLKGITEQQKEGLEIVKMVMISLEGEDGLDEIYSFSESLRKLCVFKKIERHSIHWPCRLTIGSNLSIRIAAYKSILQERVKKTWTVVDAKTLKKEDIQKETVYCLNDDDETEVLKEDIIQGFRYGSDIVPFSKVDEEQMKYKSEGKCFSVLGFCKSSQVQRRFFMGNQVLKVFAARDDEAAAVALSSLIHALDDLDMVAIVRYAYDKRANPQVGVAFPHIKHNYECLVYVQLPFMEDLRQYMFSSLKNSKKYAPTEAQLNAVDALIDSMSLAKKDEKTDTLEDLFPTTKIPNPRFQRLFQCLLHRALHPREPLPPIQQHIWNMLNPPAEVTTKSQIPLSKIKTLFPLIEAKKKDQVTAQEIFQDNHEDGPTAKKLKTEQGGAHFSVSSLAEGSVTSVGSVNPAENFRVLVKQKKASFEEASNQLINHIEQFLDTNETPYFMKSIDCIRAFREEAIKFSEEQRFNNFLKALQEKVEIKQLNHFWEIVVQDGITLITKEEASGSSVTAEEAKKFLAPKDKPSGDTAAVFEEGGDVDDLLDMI

With APLF KBM (from UniProt Q8IW19), the Kd with Ku (Homo sapiens) is 600 nM.
On to “Ku80, endogenous (from UniProt P13010 1-732) (natural protein)”, for which the percent reduction of Ku co-precipitated, relative to wild-type GFP-WRN in experiment [1] is 30%.
